The target in the data set is T1, KAE1;BUD32;CGI121;PCC1 (Arabidopsis thaliana;Arabidopsis …, UniProt O49653;Q94K14;Q6NMZ4;Q8GWD7 1-353;1-226;1-172;1-96, |||).
T1 sequence 1: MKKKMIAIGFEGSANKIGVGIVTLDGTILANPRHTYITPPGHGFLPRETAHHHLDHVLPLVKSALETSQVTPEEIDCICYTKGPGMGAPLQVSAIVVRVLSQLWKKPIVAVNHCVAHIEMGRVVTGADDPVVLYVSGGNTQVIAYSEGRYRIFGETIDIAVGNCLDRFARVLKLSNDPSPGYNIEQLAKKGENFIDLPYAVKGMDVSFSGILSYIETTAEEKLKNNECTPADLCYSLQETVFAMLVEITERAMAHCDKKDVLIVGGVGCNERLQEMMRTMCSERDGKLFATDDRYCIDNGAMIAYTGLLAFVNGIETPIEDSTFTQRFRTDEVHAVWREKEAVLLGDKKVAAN
T1 sequence 2: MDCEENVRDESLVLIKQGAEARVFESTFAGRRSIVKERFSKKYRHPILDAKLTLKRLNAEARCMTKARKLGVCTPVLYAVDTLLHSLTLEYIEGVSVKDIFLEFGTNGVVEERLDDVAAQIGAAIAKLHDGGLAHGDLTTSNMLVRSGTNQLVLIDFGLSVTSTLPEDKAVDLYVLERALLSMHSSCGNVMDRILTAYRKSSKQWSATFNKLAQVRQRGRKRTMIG
T1 sequence 3: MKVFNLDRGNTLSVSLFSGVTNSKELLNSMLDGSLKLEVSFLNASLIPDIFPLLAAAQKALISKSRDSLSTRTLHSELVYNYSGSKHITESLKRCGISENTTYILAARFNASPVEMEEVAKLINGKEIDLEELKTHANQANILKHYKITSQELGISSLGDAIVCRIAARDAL
T1 sequence 4: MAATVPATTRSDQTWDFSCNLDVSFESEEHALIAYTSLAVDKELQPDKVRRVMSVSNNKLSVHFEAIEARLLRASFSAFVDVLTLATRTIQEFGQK
In words: EMSA; 20 uM each; MST: 20 mM PBS pH 7.5, 300 mM NaCl, 0.05% Tween 20, 25 C, 50 nM RNA; EMSA: 20 mM Tris-HCl pH 7.5, 300 mM NaCl, 5 mM b-mercaptoethanol, 20% glycerol, agarose gel in Tris-glycine pH 8.0 (8.5 for FAM-RNA), 4 C. The note with it: protein: recombinant;recombinant;recombinant;recombinant; tags: none (6His on partner PCC1);none (6His on partner CGI121);6His (C-term);6His (C-term); chain copies: 2;2;2;2; tRNA cloverleaf.

B1: tRNASerGCU (structured_RNA)
RNA: GUCGCUUUGGCCGAGUGGUUAAGGCGUGUUCCUGCUAAGUACAUGGGGUUUCCCCGCGAGAGUUCGAAUCUGUCAGGCGACGCCA
Regarding B1, the binding result is listed as “binds”.

B2: tRNAIleAAU (structured_RNA)
RNA: GGCCUAUUAGCUCAGUUGGUUAGAGCGUCGUGCUAAUAACGCGAAGGUCACAGGUUCGAUCCCUGUAUAGGCCACCA
Take B2: the binding result is listed as “binds”.

B3: tRNAArgUCU (structured_RNA)
RNA: GCGCCCGUGGCCUAAUGGAUAAGGCGUUUGACUUCUAAUCAAACGAUUGUGGGUUCGAGUCCCACCGGGCGUGCCA
B3: the binding result is recorded as “binds”.

B4: tRNAThrCGU (structured_RNA)
RNA: GCCUCCGUAGCAUAGUGGUAUUGCGUUCGCUUCGUAAGCGAAAGGUCGUGAGUUCGAUCCUCACCGUAGGCUCCA
Turning to B4, the binding result is “binds”.

B5: tRNALysUUU (structured_RNA)
RNA: GCCGUCUUAGCUCAGCGGUAGAGCGCGUGGCUUUUAACCACGUGGCCGUGGGUUCGAUCCCCACAGACGGCGCCA
Regarding B5, the binding result is on record as “binds”.

B6: tRNAAsnGUU (structured_RNA)
RNA: GCUGGAAUAGCUCAGUAGGUUUAGAGCGUGUGGCUGUUAACCUCAAGGUCGGAGGUUCGACCCCUCCUUUCAGCGCCA
In the case of B6, the binding result is “binds”.

B7: tRNAIleUAU (structured_RNA)
RNA: GCUCCCGUAGCUCAGUUGGUUAGAGCGUUGGUCUUAUGAGCCGAAGGUCGCGGGUUCGAGCCCCGCCGGAAGCACCA
In the case of B7, the binding result is on record as “binds”.

For the origin of these results see publication PMC11077089, “Molecular basis of A. thaliana KEOPS complex in biosynthesizing tRNA t6A”.
